Measurements from the DeepSol protein solubility set.

Assay: soluble on expression in E. coli; label from the status in PepcDB or PDB records

Sequence	soluble on expression in E. coli
MNHKAFAKFPSSASISPNPFTVSIPDEQLDDLKTLVRLSKIAPPTYESLQADGRFGITSEWLTTMREKWLSEFDWRPFEARLNSFPQFTTEIEGLTIHFAALFSEREDAVPIALLHGWPGSFVEFYPILQLFREEYTPETLPFHLVVPSLPGYTFSSGPPLDKDFGLMDNARVVDQLMKDLGFGSGYIIQGGDIGSFVGRLLGVGFDACKAVHLNFCNMSAPPEGPSIESLSAAEKEGIARMEKFMTDGYAYAMEHSTRPSTIGHVLSSSPIALLAWIGEKYLQWVDKPLPSETILEMVSLYWLTESFPRAIHTYREWVPTASAPNGATPYQKELYIHKPFGFSFFPKDLVPVPRSWIATTGNLVFFRDHAEGGHFAALERPRELKTDLTAFVEQVWQKGRSHHHHHH	soluble
MDKPILKDSMKLFEALGTIKSRSMFGGFGLFADETMFALVVNNQLHIRADQQTSSDFETQGLKPYVYKKRGFPVVTKYYAISSELWESSDRLIEVAKKSLENAKLEKEQQASTKPNRLKDLPNLRLATERMLKKAGIDSVAQLEEEGALSAYKAIRDTHSTTVSLELLWALEGAINGTHWSVVPQSRREELMNGLS	soluble
LTDIRKKAATTLEKQIKQELNQLYMEKAIFSVHFESDKTELTESGQDSVVFYMSTNPGEPLKPLAKIASGGELSRMMLALKTIFSRHQGITSIIFDEVDTGVSGRVGQAIAEKIYAVSVGSQVLCISHLPQVAAMANHHYYITKKVQNKRTTTSVTILKGEQKVEEISRMIAGIEVTELTKQHAKEMIQQAEKVKQTY	not soluble
MGFAPVTPAAVETYDPDVDHDDESNGLDGFRVRSKRSGKFSGGYSDSPREVGDGYGVRSRARSNMKMYGGFKSEFDSDHDSGSGFGLKRKYNGNPKVSADFDADSDDEIVLVPKATRLRTHGKPSSGDFSHGSGGGFPLKSFGDRNFASHGFKPKNFSKPEPNFSQDLDYDDEFDDDRAEREGFNPRIQSSRSSSRVNGYSRKDGSYPRNTGASNGYGSSSRFKHEQMNAAAEVESDPIDEVVSSVKMLTEMFVRVENSKMEMMREMEKSRMEMELKHCQMMLESQQQIIGAFAEALSEKKSTNARRPVS	not soluble
MGSDKIHHHHHHMKRKINYTHIAEPTVFENVFPTYLTNETMMARKQKVLQRMETEKFDQLVFYADKEHGSNFEYLTGFIPRFEEGLLVLNKDGAATLILGNENLKLCQHARISADLIHYLAFSLPNQPMAGEQKLSQIFETLLDETAQKIGIVGWKMFTTQQQEPATMFDVPHFIVEALKKALPKEARLLNGTHLLIGAKGARATNNANELAHYEYGANLASRSMLKALNAIEIGQRETDIGALLNDEGQTPTVVTIAATGQRFEYANMYPTAKEIQLGDALSLTTGYKGGLSSRTGFVIENEQQLPEAQRDYLERVAKPYFQAVVHWLETIRIGLLGREMYQAIEEQLPKEIYHWHLNPGHLVSDDEWMSSPIYPDSAIRLESGMLFQVDIIPSVPGYTGVSAEECVALADETLQKEIQQTYPDMWQRIATRKAYLKETLKLDLPSEVLPMSNLVGYLRPFYLAKDKALCVEKPALK	not soluble
MGSDKIHHHHHHGKKKPPPPKSASKMGPPPPAPAPPTAPEAAPAAPTPDAAAAAPAEGEKKDGEKKSEKKDGDKKEEEKKDEEKKDGDKKEDDKKDEKKDEDKKDEKKDADEKKDEEKKDDKKDEKKDEKKDEKKDEKKEKSKKSKKSSKSKKSKKSKREKKDEEKKEDDKKEDDKKDDKKEDEKKDDDKKDDEKNYFW	not soluble
MALEYVVTKRVFGFDKDKNEKYVAKSVRSGRVSFSKMCGKVSRLCGVHRKVVDLVVSGLVDMMAEDIDDGKSVQMGEFGIFSPTIRAKSADDEKEVSSKSIVQRKILFYPGKIFKTTLDDMSITRRAELDTDYTDGSSNNGSGSEKPNPGGDGGKDDEEAPDPTV	not soluble
MRMMEAEIKDQRNNLQALKNSQRLSVRGSIQSNMSSRTDGILQRRLDETERKLAKTSAELKAKDEKLKKETASLEASREAHRLLQEESNKSKVSVMRLTFKLNRITHESVKEQAVLKKKLLDCETRLATYSECLVCYQKFDENTRIPRVMDCGHTLCDFCINQIVKMAGCYSATCPFDRVRIFGFGKSRRLEDRPCNRFIMK	not soluble
MSLGTSWQIGDVTIPNRVVVAPMAGVTNVAFRMICKAFGAGLVECEMISGQGIHYHNQRTLRMMAVNAQEHPMSIQIFGGTQETLVQAAQFVDQQTAADIIDINMGCPVNKVVNTDAGAKWLLDPQKVHDMVAAVVAAVKKPVTVKMRTGWDDHHIFAVDNALAAQRAGAAAVAMHGRTRKQMYQGQADWQILAEVAQHLTIPFMGNGDVRTPQDAQRMLNEVGADAVMIGRAVMGNPWLLQRINHYLATDELLAEPTPQEKTTIALEHLHKLCVAKGPVEGPRDFRNQVAYYLKGIPHTARTKVAITDATEEAVMHDLLVKFLERMTATIEGHHHHHH	not soluble
MAEMDERFQQILSWQQMDQNKAISQILQESAMQKAAFEALQVKKDLMHRQIRSQIKLIETELLQLTQLELKRKSLDTESLQEMISEQRWALSSLLQQLLKEKQQREEELREILTELEAKSETRQENYWLIQYQRLLNQKPLSLKLQEEGMERQLVALLEELSAEHYLPIFAHHRLSLDLLSQMSPGDLAKVGVSEAGLQHEILRRVQELLDAARIQPELKPPMGEVVTPTAPQEPPESVRPSAPPAELEVQASECVVCLEREAQMIFLNCGHVCCCQQCCQPLRTCPLCRQDIAQRLRIYHSS	soluble
MGHHHHHHENLYFQSHLYFQSHMTDCEFGYIYRLAQDYLQCVLQIPQPGSGPSKTSRVLQNVAFSVQKEVEKNLKSCLDNVNVVSVDTARTLFNQVMEKEFEDGIINWGRIVTIFAFEGILIKKLLRQQIAPDVDTYKEISYFVAEFIMNNTGEWIRQNGGWENGFVKKFEPK	soluble
MYLTIKSIMLLRKYLLVTESQVSKCGFHIVKKKGDVLYPKRTKYSKYRKGRCSRGCKPDGTKLGFGRYGTKSCKAGRLSYRAIEAARRAIIGHFHRAMSGQFRRNGKIWVRVFADLPITGKPTEVRMGRGKGNPTGWIARVSTGQIPFEMDGVSLANARQAATLAAHKPCSSTKFVQWSLEHHHHHH	not soluble
MLSRSAKPVAPNSPLMALLPYSFNRPINVLVMGLDQSETGEQAEKFDTRSDTLLLLRFDPLEGTTSLLSIPRDTQVAIPGYGTTKINAANVFGGPALAADVVSRTLNDVPIDRYLRIDTTAFKELVDLVGGVEVYVPKPMRYTDNTQKLYIDLPAGRQTLNGDQAEQFARFRYDELGDIGRVQRQQMLLRALREKLANPLILTKAPDLVKVLQKYVDTNLSFEELMALVSIGLQQDLANIRMVMLPGRPIMQDDVSYWRLDEGARDRLVSDFFNQISIQPIDRLAFEDLRVAIQDSSGKPEAAQALAESLAKLGIRRVYIIEDWPEPLEKTQIIAQRGDLIQAEGLQQQLNLGEVRASSDGDIGSDLTIRIGQDWQPTPSPKPLEHHHHHH	soluble
SLKNRRVGKKLLMTGGGRCNVTNNRPAEEIISFIPGNGKFLYSAFSQFDNYDIMNFFESNGIHLKEEDHGRMFPVTDKSKSIVDALFNRINELGVTVFTKTQVTKLLRKDDQIIGVETELEKIYAPCVVLTTGGRTYPSTGATGDGYKLAKKMGHTISPLYPTESPIISEEPFILDKTLQGLSLQDVNLTVLNQKGKPLVNHQMDMLFTHFGISGPAALRCSSFINQELTRNGNQPVTVALDVFPTKSFEEVPAKQLTEKQRLSFVELLKDFQFTVTKTLPLEKSFVTGGGISLKEVTPKTMESKLVNGLFFAGELLDINGYTGGYNVTAAFVTGHVAGSHAAEIAEYTYLPIEEV	soluble
AEVYNKDGNKLDLYGKVDGLHYFSDDKSVDGDQTYMRLGFKGETQVTDQLTGYGQWEYQIQGNAPESENNSWTRVAFAGLKFQDIGSFDYGRNYGVVYDVTSWTDVLPEFGGDTYGSDNFMQQRGNGFATYRNTDFFGLVDGLNFAVQYQGQNGSVSGENDPDFTGHGITNNGRKALRQNGDGVGGSITYDYEGFGVGAAVSSSKRTWDQNNTGLIGTGDRAETYTGGLKYDANNIYLAAQYTQTYNATRVGSLGWANKAQNFEAVAQYQFDFGLRPSVAYLQSKGKNLGVVAGRNYDDEDILKYVDVGATYYFNKNMSTYVDYKINLLDDNQFTRAAGINTDDIVALGLVYQF	soluble
MVKSVGCKNLSLDVKKAIVAGFEQGTPTKMLALQIQRSPSTIWKVIKKYQTEKSVALRISPGRPRVTTHRMDRNILRSAREDPHRTATDIQTIISSPNEPVPSKRTVRRRLQQAGLHGRKPVKKPFISKKNRMARVAWAKAHLRWGRQEWAKHIWSDESKFNLFGSDGNSWVRRPVGSRYSPKYQCPTVKHGGGSVMVWGCFTSTSMGPLRRIQSIMDRFQYENILETTMRPWALQNVGRGFVFQQDNDPKHTSLHVRSWFQPCRVHLLDWPSQSPDLNPIEHLWEELERRLGGIRASNADAKFNQLENAWKAIPMSVIHKLIDSMPRRCLAVIDANGYATKY	not soluble
MGSDKIHHHHHHMTEKKTMLEKLKKLMHHFTLSLDDISVETSRARQLSIRTEIDRLRSNERYKEPKSLIPFGGKIYSQNDEDGIIREIFNRIGTTNKVFVEFGIGNGLENNTLALLFEDWQGLWIDASSDSITSIRNHFSEIIGSGKLAVVESFITKANIDNLIATNVKHREIDLLSVDIDGNDYHVLQAISCITPRVIVIEYNAKFAPPVLFCMDYTETHMWTGDDCFGASLKFLETNLNKMGYCLVGCNLTGANAFFIRRELVTNKFLEPFTAENHFEPARYYLSGYASGHTPTYETLARSLTMRVS	not soluble
MSYYHHHHHHNYNIPTTENLYFQGAMVAPAGEQGRSSTALSDNPFDAKAWRLVDGFDDLTDITYHRHVDDATVRVAFNRPEVRNAFRPHTVDELYRVLDHARMSPDVGVVLLTGNGPSPKDGGWAFCSGGDQRIRGRSGYQYASGDTADTVDVARAGRLHILEVQRLIRFMPKVVICLVNGWAAGGGHSLHVVCDLTLASREYARFKQTDADVGSFDGGYGSAYLARQVGQKFAREIFFLGRTYTAEQMHQMGAVNAVAEHAELETVGLQWAAEINAKSPQAQRMLKFAFNLLDDGLVGQQLFAGEATRLAYMTDEAVEGRDAFLQKRPPDWSPFPRYF	soluble
MGHHHHHHSHMNLGKESRAQTLQNGRRHIHHLGNQLQLNQHCLDTAFNFFKMAVSRHLTRGRKMAHVIAACLYLVCRTEGTPHMLLDLSDLLQVNVYVLGKTFLLLARELCINAPAIDPCLYIPRFAHLLEFGEKNHEVSMTALRLLQRMKRDWMHTGRRPSGLCGAALLVAARMHDFRRTVKEVISVVKVCESTLRKRLTEFEDTPTSQLTIDEF	not soluble
MEVSKIRIHDLPEEERPRERLIKNGPESLSNAELLGIVLRTGSREENVISLCSRILMEYNIKQLSLANVSKLMQVNGIGKAKAAQIAAVFELARRLETFVEEPKRKISSPKDVYTLMYPKMREQKKEKFITLYLDTKNQILKEEVVSIGSLNASIVHPREVFKSALMESSASVIMVHNHPSGDPSPSREDIMVTEKLVEGGKLLGIDILDHIIIGDGRYVSLKDEGFVK	not soluble
SDPVDYQAEDATIVQGAVESNHAGYTGTGFVNYDNVAGSSVEWTVTVPSAGTYDVVVRYANGTTTSRPLDFSVNGSISASGVAFGSTGTWPAWTTKTVRVTLAAGVNKIKAVATTANGGPNVDKITL	soluble
MGSDKIHHHHHHMVKCIEEYVQVDDFKMYSKVFQGKKLQPVIIMEAGYGDYSKTWDHIAEELTEFGTVLTYDRAGLGKSGNSSKRRISSEMIKDLRSCLEKLQLKPPYIFVGHSFGGINARLFATFYSEDMLGIVLVDSTPENYKKDFLLIMSPEFQEAYYKQFVHESSYKEFMFSLGEADKHCQSMRNIPLVVLAAGKKAYYSQEAQMKWLQLQEELLRLSNNHKFIIAEQSGHYIQKDEPHYIIDAVKWIIEVGEG	not soluble
